B1: SaSpeG (Staphylococcus aureus subsp. aureus USA300) (protein)
chain: MKLRALEYSDLLFVHELNNEYSIMSYWFEEPYESLTELQHLFDKHLLDESERRFIVEDENQVVGIVELVEINYIHRNCEIQIIIKPEFSGKGYAKFAFEKAIIYAFNILNMHKIYLYVDADNKKAIHIYESQGFKTEGLLKEQFYTKGKYKDAYFMSLLKSEYIL
notes: E. coli BL21(DE3); dodecamer by PISA
B2: SpeG spermidine/spermine N-acetyltransferase from Staphylococcus aureus USA300 (enzyme)
chain: MKLRALEYSDLLFVHELNNEYSIMSYWFEEPYESLTELQHLFDKHLLDESERRFIVEDENQVVGIVELVEINYIHRNCEIQIIIKPEFSGKGYAKFAFEKAIIYAFNILNMHKIYLYVDADNKKAIHIYESQGFKTEGLLKEQFYTKGKYKDAYFMSLLKSEYIL
notes: SpeG spermidine/spermine N-acetyltransferase, Staphylococcus aureus USA300, UniProt A0A0H2XGJ0; gene synthesized and cloned into pMCSG21 at the SspI site; monomer ~19.8 kDa; after TEV cleavage the residues SN would remain at the N-terminus; The number of copies differs by experiment: dodecamer from crystal symmetry and PISA, trimer/tetramer by SEC; also called SaSpeG; source: E. coli BL21 (DE3) …

Key:
[1] = substrate: CC(=O)SCCNC(=O)CCNC(=O)[C@H](O)C(C)(C)COP(=O)(O)OP(=O)(O)OC[C@H]1O[C@@H](n2cnc3c(N)ncnc32)[C@H](O)[C@@H]1OP(=O)(O)O; assay: DTNB colorimetric CoA assay, discontinuous; format: biochemical, Staphylococcus aureus; details: Assay 2, enzyme pre-incubated with spermine, co-substrate 1.5 mM spermine (acceptor and allosteric ligand), 70 mM Bicine pH 8.0, 20 mM NaCl, 0.005% Triton X-100, 22 °C, 22.0 °C
Text: (§1) DTNB colorimetric CoA assay, discontinuous on SaSpeG

[2] = substrate: NCCCCNCCCN; assay: DTNB colorimetric CoA assay, discontinuous; format: biochemical, Staphylococcus aureus; details: Assay 1 (standard), no pre-incubation with polyamine, 0.5 mM AcCoA, 70 mM Bicine pH 8.0, 20 mM NaCl, 37 °C, Hill fit
Text: as §1

[3] = biological target: the molecule itself; assay: crystal structure; ligand-free SaSpeG, 0.1 M NaCl, 0.1 M HEPES pH 8.0, 1.6 M ammonium sulfate; one protomer in the asymmetric unit; oligomer from symmetry-related proteins and PISA analysis

Protein | K0.5 [1] [mM] | kcat [1] [s⁻¹] | kcat/Km [1] [M⁻¹ s⁻¹] | K0.5 [2] [mM] | kcat [2] [s⁻¹] | kcat/Km [2] [M⁻¹ s⁻¹] | stoichiometry N [3]
B1 | 0.29 ± 0.01 | 390 | 1.3e+06 | 4.0 ± 0.1 | 3 | 750 | –
B2 | – | – | – | – | – | – | 12

— publication PMC10378331, “Structural and Kinetic Characterization of the SpeG Spermidine/Spermine N-acetyltransferase from Methicillin-Resistant Staphylococcus aureus USA300” (Cells, 2023)
